# Reference: patent publication US20230398228A1, “ERIBULIN-BASED ANTIBODY-DRUG CONJUGATES AND METHODS OF USE” (EISAI R&D MANAGEMENT CO., LTD., priority 2016, published 2023)
# Several values for one entry are separate records, joined by “and”; a condition that tells them apart may be missing. Equal values may be shown once.
# Columns and labels:
# [1] = Maximum tolerated dose of MORAb-202 in CD-1 mice; assay type: in vivo, mouse
# Protocol: Body weight was measured prior to dose on the dosing day, 24 hours post dose, and three times a week thereafter. […] Two weeks after dosing, the terminal body weight was measured and recorded. Euthanized mice at the end of the study (and if any mouse euthanized or found dead during the study) were processed for necropsy. Organs were examined for signs of tissue damage.
# [2] = tested on: Endo-12961 endometrial cancer patient-derived xenograft; assay: Endometrial cancer PDx model Endo-12961
# Protocol: (§1) Tumor fragments were implanted subcutaneously into the left flank of 40 NMRI nu/nu female mice, and tumor volume was monitored. Mice with a tumor volume of 100-160 mm^3 were randomized into one of four groups (Groups A-D, Table 39). […] Each group consisted of 8 animals. The day of randomization was designated as Day 0 of the experiment.
# (§2) Tumor growth was evaluated by the measurement of two perpendicular diameters twice weekly, and tumor volume (TV), relative tumor volume (RTV) and treated/control (T/C) values were calculated. Body weight was also evaluated twice weekly as a parameter for toxicity, with the calculation of the body weight per group and body weight changes (BWC) relative to the start of treatment. Animals were sacrificed when the individual tumor volume exceeded 1 cm^3, or at the end of the study.
# [3] = tested on: Endo-10590 endometrial cancer patient-derived xenograft; assay: Endometrial cancer PDx model Endo-10590
# Protocol: as §1, §2
# [4] = MORAb-202 5 mg/kg or eribulin 3.2 mg/kg
# [5] = MORAb-202 5 mg/kg or eribulin 3.2 mg/kg, single i.v. dose
substance,measurement,setting,value
MORAb-003-maleimido-PEG2-Val-Cit-pAB-eribulin [MORAb-202],Body weight of individual mice,"[1]; 20 mg/kg single bolus i.v., CD-1 mice, day 11 post Rx",31.00 g and 32.40 g and 23.80 g
same,"Body weight, group mean","[1]; 20 mg/kg single bolus i.v., CD-1 mice, day 11 post injections",29.1 g
same,Body weight of individual mice,"[1]; 20 mg/kg single bolus i.v., CD-1 mice, day 14 post Rx",33.20 g and 32.40 g and 24.10 g
same,"Body weight, group mean","[1]; 20 mg/kg single bolus i.v., CD-1 mice, day 14 post injections",29.9 g
same,Body weight of individual mice,"[1]; 40 mg/kg single bolus i.v., CD-1 mice, day 0 post Rx",23.80 g and 23.30 g and 21.70 g
same,"Body weight, group mean","[1]; 40 mg/kg single bolus i.v., CD-1 mice, day 0 post injections",22.9 g
same,Body weight of individual mice,"[1]; 40 mg/kg single bolus i.v., CD-1 mice, day 1 post Rx",23.60 g and 23.50 g and 21.60 g
same,"Body weight, group mean","[1]; 40 mg/kg single bolus i.v., CD-1 mice, day 1 post injections",22.9 g
same,Body weight of individual mice,"[1]; 40 mg/kg single bolus i.v., CD-1 mice, day 2 post Rx",23.60 g and 24.60 g and 21.80 g
same,"Body weight, group mean","[1]; 40 mg/kg single bolus i.v., CD-1 mice, day 2 post injections",23.3 g
same,Body weight of individual mice,"[1]; 40 mg/kg single bolus i.v., CD-1 mice, day 4 post Rx",24.40 g and 24.10 g and 22.70 g
same,"Body weight, group mean","[1]; 40 mg/kg single bolus i.v., CD-1 mice, day 4 post injections",23.7 g
same,Body weight of individual mice,"[1]; 40 mg/kg single bolus i.v., CD-1 mice, day 7 post Rx",25.10 g and 25.50 g and 23.40 g
same,"Body weight, group mean","[1]; 40 mg/kg single bolus i.v., CD-1 mice, day 7 post injections",24.7 g
same,Body weight of individual mice,"[1]; 40 mg/kg single bolus i.v., CD-1 mice, day 9 post Rx",25.80 g and 25.20 g and 23.70 g
same,"Body weight, group mean","[1]; 40 mg/kg single bolus i.v., CD-1 mice, day 9 post injections",24.9 g
same,Body weight of individual mice,"[1]; 40 mg/kg single bolus i.v., CD-1 mice, day 11 post Rx",25.30 g and 25.00 g and 23.80 g
same,"Body weight, group mean","[1]; 40 mg/kg single bolus i.v., CD-1 mice, day 11 post injections",24.7 g
same,Body weight of individual mice,"[1]; 40 mg/kg single bolus i.v., CD-1 mice, day 14 post Rx",25.70 g and 25.30 g and 26.30 g
same,"Body weight, group mean","[1]; 40 mg/kg single bolus i.v., CD-1 mice, day 14 post injections",25.8 g
same,Body weight of individual mice,"[1]; 80 mg/kg single bolus i.v., CD-1 mice, day 0 post Rx",21.80 g and 26.50 g and 25.80 g
same,"Body weight, group mean","[1]; 80 mg/kg single bolus i.v., CD-1 mice, day 0 post injections",24.7 g
same,Body weight of individual mice,"[1]; 80 mg/kg single bolus i.v., CD-1 mice, day 1 post Rx",23.10 g and 27.80 g (2×)
same,"Body weight, group mean","[1]; 80 mg/kg single bolus i.v., CD-1 mice, day 1 post injections",26.2 g
same,Body weight of individual mice,"[1]; 80 mg/kg single bolus i.v., CD-1 mice, day 2 post Rx",23.30 g and 28.30 g (2×)
same,"Body weight, group mean","[1]; 80 mg/kg single bolus i.v., CD-1 mice, day 2 post injections",26.6 g
same,Body weight of individual mice,"[1]; 80 mg/kg single bolus i.v., CD-1 mice, day 4 post Rx",23.50 g and 29.50 g and 28.60 g
same,"Body weight, group mean","[1]; 80 mg/kg single bolus i.v., CD-1 mice, day 4 post injections",27.2 g
same,Body weight of individual mice,"[1]; 80 mg/kg single bolus i.v., CD-1 mice, day 7 post Rx",23.30 g and 30.40 g and 30.10 g
same,"Body weight, group mean","[1]; 80 mg/kg single bolus i.v., CD-1 mice, day 7 post injections",27.9 g
same,Body weight of individual mice,"[1]; 80 mg/kg single bolus i.v., CD-1 mice, day 9 post Rx",23.60 g and 31.00 g and 30.20 g
same,"Body weight, group mean","[1]; 80 mg/kg single bolus i.v., CD-1 mice, day 9 post injections",28.3 g
same,Body weight of individual mice,"[1]; 80 mg/kg single bolus i.v., CD-1 mice, day 11 post Rx",23.10 g and 29.10 g and 29.40 g
same,"Body weight, group mean","[1]; 80 mg/kg single bolus i.v., CD-1 mice, day 11 post injections",27.2 g
same,Body weight of individual mice,"[1]; 80 mg/kg single bolus i.v., CD-1 mice, day 14 post Rx",21.70 g and 28.40 g and 28.90 g
same,"Body weight, group mean","[1]; 80 mg/kg single bolus i.v., CD-1 mice, day 14 post injections",26.3 g
same,"toxicity, in words",[1]; doses up to 80 mg/kg via bolus intravenous administration,no toxicity
same,maximum tolerated dose (MTD),"[1]; single bolus intravenous dose, CD-1 mice",above 80 mg/kg
same,"body weight loss compared with PBS control, in words","[1]; single i.v. dose 10, 20, 40 or 80 mg/kg",No significant body weight loss
same,"tumor re-growth during the study, in words",[2]; [4],no significant tumor re-growth
same,"anti-tumor activity, in words",[2]; [5],significant anti-tumor activity
same,"effect on body weight, in words",[2]; first week post-treatment,no body weight loss
same,"tumor re-growth during the study, in words",[3]; [4],no significant tumor re-growth
same,"anti-tumor activity, in words",[3]; [5],significant anti-tumor activity
same,"effect on body weight, in words",[3]; first week post-treatment,no body weight loss
